The target in assay [1] is T1, substituted human PD-1, domain #1 replaced with the corresponding amino acid sequence of mouse PD-1 (human; mouse, UniProt Q15116 25-288).
T1 construct: also called PD-1 when domain #1 is replaced
T1 chain: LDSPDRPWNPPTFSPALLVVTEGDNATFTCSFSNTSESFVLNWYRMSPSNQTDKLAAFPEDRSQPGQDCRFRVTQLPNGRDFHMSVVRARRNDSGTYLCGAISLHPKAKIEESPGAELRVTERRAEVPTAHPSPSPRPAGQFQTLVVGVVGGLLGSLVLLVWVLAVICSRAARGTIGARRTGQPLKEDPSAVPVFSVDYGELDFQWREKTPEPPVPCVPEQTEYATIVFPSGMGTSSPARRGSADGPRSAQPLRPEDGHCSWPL
Put plainly: flow cytometry on cells expressing substituted human PD-1. The source says: (§1) These sub-groups of antibodies are characterized by a common nature that they bind to domain #6 and domain #7, and are distinguished from known antibodies.
(§2) The gene of human PD-1 (wild-type) or substituted human PD-1 in which regions 1 to 8 as shown in FIG. 2A were replaced with mouse sequences and a gene of fluorescent protein such as GFP were co-expressed in a cell line (such as DO11.10 T cell hybridoma or HEK293T) by means of a vector ligating the genes with IRES sequences. The expression level of PD-1 on this cell line is correlated with the expression level of fluorescent protein such as GFP. Anti-PD-1 antibody was bound to the PD-1/GFP expressing cells, and the bound antibody was detected with a secondary antibody labeled with a different fluorescent dye. Briefly, PD-1-expressing cells were seeded in V-shaped bottom 96-well plates at 1×10⁵ cells/well. To each cell pellet, 50 μl of anti-human PD-1 antibody adjusted to 5 μg/ml was added and mixed. The mixture was incubated at 4° C. for 15 minutes. After washing, BV421-labeled anti-mouse IgG antibody or BV421-labeled anti-human IgG antibody, each adjusted to 5 μg/ml, was added in 50 μl. The mixture was incubated at 4° C. for 15 minutes. After washing, cells were suspended in 200 μl of buffer, and passed through a 70 μm filter. The fluorescence intensity of the filtrate was measured with a flow cytometer. The thus obtained fluorescence intensity can be rephrased as the binding capacity of anti-human PD-1 antibody to human PD-1 (wild-type or substituted). […] Binding characteristics to R143A point mutant or substituted Mouse PD-1 (hu38-48) were also analyzed in the same manner.
A general note: In flow cytometry, cells or beads pass a laser one at a time.

The target in assay [2] is T2, substituted human PD-1, domain #7 replaced with the corresponding amino acid sequence of mouse PD-1 (human; mouse, UniProt Q15116 25-288).
T2 construct: Human limits of domain #7 (38-48) are printed; also called PD-1 if domain #7 is replaced
T2 chain: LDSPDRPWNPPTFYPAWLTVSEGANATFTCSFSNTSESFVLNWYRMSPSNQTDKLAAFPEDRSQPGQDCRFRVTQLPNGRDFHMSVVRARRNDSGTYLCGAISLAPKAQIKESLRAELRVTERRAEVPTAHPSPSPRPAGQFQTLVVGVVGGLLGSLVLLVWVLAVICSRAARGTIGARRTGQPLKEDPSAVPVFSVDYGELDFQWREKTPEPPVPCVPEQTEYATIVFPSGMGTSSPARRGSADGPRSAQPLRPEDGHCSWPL
The description is as above.
Text: as §1, §2

The target of assay [3] is T3, substituted human PD-1, domain #6 replaced with the corresponding amino acid sequence of mouse PD-1 (human; mouse, UniProt Q15116 25-288).
T3 construct: Human limits of domain #6 (109-120) are printed; also called PD-1 if domain #6 is replaced
T3 chain: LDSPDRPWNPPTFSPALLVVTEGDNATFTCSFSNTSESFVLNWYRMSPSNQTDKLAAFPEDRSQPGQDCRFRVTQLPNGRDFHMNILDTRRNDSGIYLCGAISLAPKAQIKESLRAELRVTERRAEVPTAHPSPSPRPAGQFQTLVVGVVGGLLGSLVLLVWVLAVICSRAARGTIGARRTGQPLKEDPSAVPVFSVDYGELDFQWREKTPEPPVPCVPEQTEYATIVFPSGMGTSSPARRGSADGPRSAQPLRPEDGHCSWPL
The description is as above.
Text: as §1, §2

The target of assay [4] is T4, human PD-1 (wild-type), expressed on cells (human, UniProt Q15116 25-288).
T4 construct: also called hPD-1; wild-type human PD-1
Description: flow cytometry on PD-1-expressing cells.
Text: as §2, with “After washing, cells were suspended in 200 μl of buffer, and passed through a 70 μm filter.” left out

B1: mouse HM297 (antibody, mouse IgG2a, kappa)
heavy: EVLLQQSGPELVKPGASVKIPCKASGYTFTDYNVDWVRQSHGKSLEWIGDIDPNNGGTIYNQKFKDKATLTVDKSSRTAYMELRSLTSEDTAVYYCARWRGAMDYWGQGTSVTVSSAKTTAPSVYPLAPVCGDTTGSSVTLGCLVKGYFPEPVTLTWNSGSLSSGVHTFPAVLQSDLYTLSSSVTVTSSTWPSQSITCNVAHPASSTKVDKKIEPRGPTIKPCPPCKCPAPNLLGGPSVFIFPPKIKDVLMISLSPIVTCVVVDVSEDDPDVQISWFVNNVEVHTAQTQTHREDYNSTLRVVSALPIQHQDWMSGKEFKCKVNNKDLPAPIERTISKPKGSVRAPQVYVLPPPEEEMTKKQVTLTCMVTDFMPEDIYVEWTNNGKTELNYKNTEPVLDSDGSYFMYSKLRVEKKNWVERNSYSCSVVHEGLHNHHTTKSFSRTPGK
light: DVQMTQTTSSLSASLGDRVTISCRASQDIDNYLKWYQQKPDGTVKLLIYDTSRLHSGVPSRFSGSGSGTDYSLTISNLKQEDIATYFCQQGYTLPWTFGGGTRLEIKRADAAPTVSIFPPSSEQLTSGGASVVCFLNNFYPKDINVKWKIDGSERQNGVLNSWTDQDSKDSTYSMSSTLTLTKDEYERHNSYTCEATHKTSTSPIVKSFNRNEC
notes: Mouse anti-human PD-1 monoclonal antibody (mouse IgG)
Consider B1, for which the binding result in assay [1], in assay [2] and in assay [3] was “no binding (tested: 5 µg/ml)” each time.

B2: HM624 (antibody, V domains shown)
VH: EVLLQQSGPELVQPGTSVKIFCKASGYTFTDYNIDWVKQSHGKSHEWIGDIDPNNGGTVYNQKFKGKATLTVDKSSTTAYMELRSLTSEDTAVYYCTRWRGAMDYWGRGTSVTVSS
VL: DIQMTQTTSSLSASLGDRVTISCRASQDVSNYLNWYQQKPDGTVKLLIYDTSKLHSGVPSRFSGSGSGTDYSLTIRDPDQEDIATYFCQQGHTLPWTFGGGTKLEIRR
For B2, the binding result in assay [1], in assay [2] and in assay [3] was “no binding (tested: 5 µg/ml)” each time.

B3: mouse HM266 (antibody, mouse IgG2a, kappa, V domains shown)
VH: QVQLQQSGPELVKPGASVKMSCKASGYTFTSYYIQWVKQRPGQGLEWIGWIYPGDGSSKYNEKFKGKTTLTADKSSSTAYMLLSSLTSEDSGIYFCASYYGSSFDYWGQGTTLTVSS
VL: DIQMTQTTSSLSASLGDRVTISCRASQDISNYLNWYQQKPDGTVKFLIYYSSRLHSGVPSRFSGSGSGTDYSLTISNLEQEDIATYFCQQGSTLPFTFGGGTKLEIKR
notes: as for B1
For B3, in assay [4], the binding result is “binds”.

B4: HM698 (antibody, V domains shown)
VH: EVLLQQSGPELVKPGASVKIPCKASGYTFTDYNMDWVKQSHGKSLEWIGDIDPNNGGTVYNQKFKGKASLTVDKSSSTAYMELRSLTSEDTAVYYCARWRSAMDYWGQGTSVTVSS
VL: DIQMTQTTSSLSASLGDRVTISCRASQDISNYLNWYQQKPDGTVKLLIYYTSRLHSGVPSRFSGSGSGTDYSLTISNLEQEDIATYFCQQYNTLPWTFGGGTKLEIKR
As to B4, the binding result in assay [2] and in assay [3] was “no binding (tested: 5 µg/ml)” throughout.

B5: HM647 (antibody, V domains shown)
VH: EVLLQQSGPELVKPGASVKITCKASGYTFTDYNMDWVKQSHGKSLEWIGDIDPNNGGTVYNQKFKDKASLTVDKSSSTGYMELRSLTSEDTAVYYCARWRSAMDYWGQGTSVTVSS
VL: DIQMTQPTSSLSASLGDRVTISCRASQDISNYLNWYQQKPDGTVKLLISYTSRLHSGVPSRFSGSGSGTDYSLTISNLEQVDIATYFCQQYSTLPWTFGGGSKLEIKR
B5: the binding result in assay [2] and in assay [3] was “no binding (tested: 5 µg/ml)” in each case.

The record behind these values is US20240317859A1 (FOUNDATION FOR BIOMEDICAL RESEARCH AND INNOVATION AT KOBE, published 2024).
